Test results as given in article PMC4540644 (Journal of molecular biology, 2015).

B1: Human metavinculin tail (MVT, residues 879-1134) (domain or fragment)
chain: EEKDEEFPEQKAGEVINQPMMMAARQLHDEARKWSSKPGIPAAEVGIGVVAEADAADAAGFPVPPDMEDDYEPELLLMPSNQPVNQPILAAAQSLHREATKWSSKGNDIIAAAKRMALLMAEMSRLVRGGSGTKRALIQCAKDIAKASDEVTRLAKEVAKQCTDKRIRTNLLQVCERIPTISTQLKILSTVKATMLGRTNISDEESEQATEMLVHNAQNLMQSVKETVREAEAASIKIRTDAGFTLRWVRKTPWYQ
B2: Human vinculin tail (VT, residues 879-1066) (domain or fragment, UniProt P18206-2 879-1066, looked up)
chain: EEKDEEFPEQKAGEVINQPMMMAARQLHDEARKWSSKGNDIIAAAKRMALLMAEMSRLVRGGSGTKRALIQCAKDIAKASDEVTRLAKEVAKQCTDKRIRTNLLQVCERIPTISTQLKILSTVKATMLGRTNISDEESEQATEMLVHNAQNLMQSVKETVREAEAASIKIRTDAGFTLRWVRKTPWYQ

Columns and labels:
Experiment in all cases: co-sedimentation
[1] = target: T1, Rabbit skeletal muscle α-actin filaments (F-actin) (rabbit, UniProt P68135 1-377)
[2] = target: T1, Rabbit skeletal muscle α-actin …; remark: listed apart in the source
[3] = target: Yeast (Saccharomyces cerevisiae) actin, wild type, filaments (Saccharomyces cerevisiae, UniProt P60010 1-375)

| Binder | stoichiometry N [1] | Kd [2] | binding result [3] |
| --- | --- | --- | --- |
| B1 | 1 | 560 ± 90 nM | – |
| B2 | 1 | – | binds |
